According to patent publication US20200399382A1 (ARGENX, published 2020):
Where a chain is given by its changes, count along the chain named.

T1: human IL-4Rα (SPR target) (human, UniProt P24394 26-232, limits assumed)
T1 construct: also called recombinant human IL-4Rα-Fc
T1 sequence (looked up): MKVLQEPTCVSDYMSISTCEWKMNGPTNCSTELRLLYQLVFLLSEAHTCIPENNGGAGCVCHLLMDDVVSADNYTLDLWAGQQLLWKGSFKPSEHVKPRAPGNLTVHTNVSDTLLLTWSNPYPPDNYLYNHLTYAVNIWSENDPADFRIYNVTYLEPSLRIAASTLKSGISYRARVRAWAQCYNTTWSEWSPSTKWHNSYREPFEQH

T2: human IL-5 (human, UniProt P05113 20-134)
T2 construct: also called hIL-5; recombinant human IL-5
T2 sequence (looked up): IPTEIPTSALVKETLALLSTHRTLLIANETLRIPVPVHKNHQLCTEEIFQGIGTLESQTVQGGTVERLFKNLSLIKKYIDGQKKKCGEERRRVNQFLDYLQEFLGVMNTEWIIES

T3: human IL-4Rα on the cells of the hIL-4 proliferation assay (human, UniProt P24394 26-825)
T3 sequence (looked up): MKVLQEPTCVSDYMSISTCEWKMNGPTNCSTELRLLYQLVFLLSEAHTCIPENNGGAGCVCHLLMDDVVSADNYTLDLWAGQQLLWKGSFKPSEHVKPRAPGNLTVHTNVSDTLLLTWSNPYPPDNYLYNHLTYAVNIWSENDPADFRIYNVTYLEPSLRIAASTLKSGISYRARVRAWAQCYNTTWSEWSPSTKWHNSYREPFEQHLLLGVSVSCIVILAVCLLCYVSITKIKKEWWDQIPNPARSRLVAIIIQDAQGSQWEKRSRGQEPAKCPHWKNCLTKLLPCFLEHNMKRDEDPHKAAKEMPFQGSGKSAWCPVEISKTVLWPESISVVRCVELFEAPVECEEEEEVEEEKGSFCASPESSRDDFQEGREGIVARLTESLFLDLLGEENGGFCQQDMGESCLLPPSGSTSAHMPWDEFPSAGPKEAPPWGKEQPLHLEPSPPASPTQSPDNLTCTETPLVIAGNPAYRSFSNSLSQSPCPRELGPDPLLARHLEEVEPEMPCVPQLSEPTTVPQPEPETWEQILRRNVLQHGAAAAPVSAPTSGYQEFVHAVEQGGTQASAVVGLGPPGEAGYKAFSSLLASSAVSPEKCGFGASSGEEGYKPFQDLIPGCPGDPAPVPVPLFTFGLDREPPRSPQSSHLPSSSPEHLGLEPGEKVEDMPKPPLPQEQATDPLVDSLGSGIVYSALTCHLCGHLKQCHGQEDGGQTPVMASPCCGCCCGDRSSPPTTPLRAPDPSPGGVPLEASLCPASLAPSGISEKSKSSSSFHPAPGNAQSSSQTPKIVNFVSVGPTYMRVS

T4: cynomolgus recombinant IL-4Rα (cynomolgus (table head: cyno/rhesus), UniProt A0A2K5V556 26-232)
T4 construct: Bought reagent; also called cyno/rhesus IL-4Rα; cyno IL-4Rα
T4 sequence: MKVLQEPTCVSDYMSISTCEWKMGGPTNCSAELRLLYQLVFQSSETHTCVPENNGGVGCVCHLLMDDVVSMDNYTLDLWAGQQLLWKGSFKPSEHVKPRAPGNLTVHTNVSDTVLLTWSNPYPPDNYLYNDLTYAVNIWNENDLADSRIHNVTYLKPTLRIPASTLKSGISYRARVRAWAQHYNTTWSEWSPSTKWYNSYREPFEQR

T5: mouse IL-5 (mouse, UniProt P04401 21-133)
T5 sequence (looked up): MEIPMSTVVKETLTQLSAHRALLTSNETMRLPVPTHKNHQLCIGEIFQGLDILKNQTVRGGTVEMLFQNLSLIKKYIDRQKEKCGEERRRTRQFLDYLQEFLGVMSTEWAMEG

B1: h4R5D1 human IL-4Rα mAb (antibody, V domains shown)
VH: QLQLVESGGGLVQPGGSLRLSCAASGFTFSSYIMSWVRQAPGKGLEWVSGISSGGGITAYADSVKGRFTISRDNAKNTLYLQMNSLKPDDTAVYYCVAGLLRVEGYWGQGTQVTVSS
VL: QTVVTQEPSLSVSPGGTVTLTCGLSSGSVTSSNYPGWYQQTPGQAPRSLIYATASRHSGVPSRYSGSISGNKATLTITGAEPEDEADYYCALHKGTYVFGGGTKLTVL
notes: also called h4RMP5D1; 4RMP5D1
B2: h4R3B2 human IL-4Rα mAb (antibody, V domains shown)
VH: QLQLVESGGGLVQPGGSLRLSCAASGFTFSSYDMTWVRQAPGKGLEWVSAINSGGGSTNYADSVKGRVTISRDNAKNTLYLQMNSLKPEDTAVYFCARALRTVVHDRRLFYIDSWGQGTQVTVSS
VL: SYELTQSPSVSVALRQTAKITCGGNNIGSKSAQWYQQKPGQAPVLVIYADSRRPSGIPERFSGSNSGNTATLTVSGAQAEDEADYYCQVWDTSAVVFGGGTRLTVL
notes: also called h4RMP3B2; 4RMP3B2
B3: h4R3D6 human IL-4Rα mAb (antibody, V domains shown)
VH: QVQLQESGGGLVQPGGSLRLSCAASGFTFSSYSLTWVRQAPGKGLEWVSTIKARGGTTLYADSVKDRFTISRDNAKNTLYLLMNSLKPEDTAVYYCAKPLYNNFAGDFGSWGQGTTVTVSS
VL: DIQMTQSPSSLSASLGDRVTITCQASQSISSYLAWYQQKPGQAPKLLIYGGSRLQTGVPSRFSGSGSGTSFTLTISGLETEDLATYYCLQDYSWPLTFGQGTKVELK
notes: also called 4RMP3D6
B4: 3D6wt Fab (parental 4RMP3D6 as Fab) (Fab, V domains shown)
VH: B3 VH
VL: B3 VL
notes: also called h4R3D6
B5: 150A09 Fab (variant of 4RMP3D6) (Fab, V domains shown)
VH: B3 VH with A97V, N102S
VL: B3 VL with K45R, L89Q, V104L, L106I
notes: Fab from periplasmic extract, with CH1 and CK constant domains; also called VH150A09
B6: 152A07 Fab (variant of 4RMP3D6) (Fab, V domains shown)
VH: B3 VH with N102S, F104L, F108L
VL: B3 VL with V104L, L106I
notes: also called VH152A07
B7: 152B10 Fab (variant of 4RMP3D6) (Fab, V domains shown)
VH: B3 VH with M83V, F104L
VL: B3 VL with T56A, S76G, L89Q, V104L, L106I
notes: Fab from periplasmic extract, with CH1 and CK constant domains; also called VH152B10
B8: 153A11 Fab (variant of 4RMP3D6) (Fab, V domains shown)
VH: B3 VH with L82Q, N102S, F104L
VL: B3 VL with P40S, D91V, V104L, L106I
notes: Fab from periplasmic extract, with CH1 and CK constant domains; also called VH153A11
B9: 153E11 Fab (variant of 4RMP3D6) (Fab, V domains shown)
VH: B3 VH with D107H
VL: B3 VL with L89Q, V104L, L106I
notes: Fab from periplasmic extract, with CH1 and CK constant domains; also called VH153E11
B10: h5MP90E7 human IL-5 mAb (antibody, V domains shown)
VH: EVQLVESGGGLVQPGGSLRLSCAASGFAFSSSFMSWVRQAPGKGLEWVSTINGNGGTYYADSMKGRFTISRDNVKSTVTLQMNSLKPEDTAVYYCAADWISGGYYFPALGYWGQGTQVTVSS
VL: SYELTQSPSVSVALRQTAKITCGGNNIGSKSAQWYQQKPGQAPVLVIYADSRRPSGIPERFSGSNSGNTATLTISGAQAEDEADYYCQVWDVSTNAAVFGGGTHLSVL
B11: h5MP26H7 human IL-5 mAb (antibody, V domains shown)
VH: B10 VH
VL: SYELTQSPSVSVAQTQTAKITCGGDNIGSKSVQWYQQKPGQAPVLAIYADTRRPSGIPERFSGSNSGNTATLTITGAQAEDEADYYCQVWDTSTNVAVFGGGTRLTIL
B12: h5MP90A9 human IL-5 mAb (antibody, V domains shown)
VH: B10 VH
VL: B10 VL with V10L, I20M, N26K, S62A, S66A, V92I, T94A, S106T
B13: h5MP90C8 human IL-5 mAb (antibody, V domains shown)
VH: B10 VH
VL: B10 VL with N25D, K38S, S51A, R52S, Q78R, V92T, S106T
B14: h5MP90D9 human IL-5 mAb (antibody, V domains shown)
VH: B10 VH
VL: B10 VL with K30L, A32T, S51N, P58H, S75G, V92N, T94A, A97L, S106T
B15: h5MP90G7 human IL-5 mAb (antibody, V domains shown)
VH: B10 VH
VL: B10 VL with S29R, V92S, T94A, S106T
B16: 95G7hIgG1 (IL-5 antibody 5MP95G7 as human IgG1) (antibody, V domains shown)
VH: ELQVVESGGGLVQPGGSLRLSCAASGFTFSSYGMSWVRQAPGKGLEWVSTISRGGDSTSYADSVKGRFTISKDNAKNTLYLQMNSLEPEDTAVYYCANLGRLGFGRGQGTQVTVSS
VL: SYELTQPPSVSGSPGKTLTISCAGTSSDIGDWNYVSWFQQLPGTAPKLLISEVNKRASGIPDRFSGSKSGNTASLSISGLQSEDEADYYCTSYRSGNNWVFGGGTHLTVL

target: T1, human IL-4Rα (SPR target); assay: SPR as described in Example 2

Compared with B1, B2 is 1.9-fold higher in Kd: 44.2 pM for the first, 81.8 pM for the second. The first binds more tightly here.

For B3, the Kd was 55.1 pM.

target: T1, human IL-4Rα (SPR target); assay: SPR (Biacore 3000), periplasmic Fab over CM5 chip coated with human IL-4Rα
Excerpt: (§1) After 3 rounds of selection, clones were selected (from round 2 and 3), and Fab was produced from the periplasmic extracts and tested by SPR.

Going from B4 to B5, the “R0 (binding)” value falls from 204 to 53.

Going from B6 to B7, the “R0 (binding)” value rises from 58 to 110.

First: B8
Second: B9
The “R0 (binding)” value of the first is higher: 68 for the first, 56 for the second.

Going from B4 to B5, the koff rises from 0.00053 s⁻¹ to 0.00084 s⁻¹ (1.6-fold).

Going from B6 to B7, the koff rises from 0.00069 s⁻¹ to 0.0012 s⁻¹ (1.7-fold).

First: B8
Second: B9
The koff of the first is 4.7-fold higher: 0.002 s⁻¹ for the first, 0.00043 s⁻¹ for the second.

target: T2, human IL-5; assay: SPR as described in Example 2

First: B10
Second: B11
The Kd of the first is 1.7-fold higher: 129 pM for the first, 74.9 pM for the second.

Compared with B12, B13 is 1.6-fold higher in Kd: 83.5 pM for the first, 133 pM for the second.

Going from B14 to B15, the Kd rises from 26.4 pM to 113 pM (4.3-fold).

target: T3, human IL-4Rα on the cells of the hIL-4 …; assay: cell-based or functional assay

Compared with B1, B2 is 2-fold higher in “IC50 (nM), proliferation assay with hIL-4 (1.5 ng/mL)” value: 0.2 nM for the first, 0.4 nM for the second.

For B3, the “IC50 (nM), proliferation assay with hIL-4 (1.5 ng/mL)” value was 0.6 nM.

target: T4, cynomolgus recombinant IL-4Rα; assay: SPR (Biacore 3000), periplasmic Fab over CM5 chip coated with cyno IL-4Rα
Excerpt: as §1

First: B4
Second: B5
The “R0 (binding)” value of the first is lower: 26 for the first, 80 for the second.

Compared with B6, B7 is higher in “R0 (binding)” value: 94 for the first, 170 for the second.

Compared with B8, B9 is lower in “R0 (binding)” value: 146 for the first, 78 for the second.

B4 and B5 are within 1.5-fold of each other in koff: 0.0017 s⁻¹ for the first, 0.002 s⁻¹ for the second.

Compared with B6, B7 is 1.5-fold higher in koff: 0.0017 s⁻¹ for the first, 0.0026 s⁻¹ for the second.

Compared with B8, B9 is 4.2-fold higher in koff: 0.00033 s⁻¹ for the first, 0.0014 s⁻¹ for the second.

target: T2, human IL-5; assay: cell-based or functional assay

Going from B10 to B11, the “IC50 (pM), proliferation assay with hIL-5 (0.25 ng/mL)” value (from here on “IC50 (pM), proliferation assay”) rises from 8.84 pM to 37.5 pM.

Compared with B12, B13 is higher in “IC50 (pM), proliferation assay” value: 4.99 pM for the first, 6.93 pM for the second.

Compared with B14, B15 is lower in “IC50 (pM), proliferation assay” value: 6.84 pM for the first, 1.61 pM for the second.

target: T5, mouse IL-5; assay: cell-based or functional assay

B16 was tested, and the “EC50 (nM), inhibition of mIL-5-induced (0.25 ng/mL) proliferation of TF-1 cells” value was 1.86 nM.
